Changes are numbered by the printed parent chain.

Here are results for 5 molecules from US20200247901A1 (US Dept. of Health and Human Services, published 2020).

B1: peptide 1 (CLVLDLSMQEALS) (peptide)
peptide: CLVLDLSMQEALS
notes: Mesothelin 587-598 with an added N-terminal cysteine
B2: 15B6 anti-mesothelin antibody (IgG2b) (antibody, V domains shown)
VH: EVQLQQSGPVLVKPGASVKISCKASGYSFTGYYMHWVRQSLVKRLEWIGRINPYTGVPSYKHNFKDKASLTVDKSSSTAYMELHSLTSEDSAVYYCARELGGYWGQGTTLTVSS
VL: QAVVTQESALTTSPGETVTLTCRSSTGAVTTGNYPNWVQEKPDHLFTGLIAGTNNRAPGVPARFSGSLIGDKAALTITGAQTEDEAIYFCALWFSSHWVFGGGTKLTVL
notes: Mouse hybridoma monoclonal antibody, IgG 2b; also called Mab 15B6; antibody 15B6
B3: 2B4 anti-mesothelin antibody (IgG2a) (antibody, V domains shown)
VH: EVQLQQSGPELVKPGASVKISCKASGYPFTGHYMHWVKQGHVKSLEWIGRINPYTGAINYNQNFKDKASLSVEKSSSTAYMGLHSLTSEDSAVYYCVRDLGGGYWGQGTTLTVSS
VL: B2 VL with G32S, P35A, T82P, Y88F, F94Y
notes: Mouse hybridoma monoclonal antibody, IgG 2a; also called antibody 2B4
B4: 7B5 anti-mesothelin antibody (IgG1) (antibody, V domains shown)
VH: B3 VH with A16T, S71T
VL: B2 VL with G32S, P35A, T82P, I87M, Y88F, S95G
notes: Mouse hybridoma monoclonal antibody, IgG 1; also called antibody 7B5
B5: peptide 2 (CSMQEALS) (peptide)
peptide: CSMQEALS
notes: Mesothelin 592-598 with an added N-terminal cysteine

Assay [1] concerns the target B2. Kind of assay: competition ELISA, antibody 30 ng/ml on coated MSLN-Fc, peptide titrated. How it is done: (§1) A competition assay was completed using the following peptides: peptide 1 having the sequence CLVLDLSMQEALS (SEQ ID NO: 61) and peptide 2 having the sequence CSMQEALS (SEQ ID NO: 62). An ELISA plate was coated with MSLN(M)-Fc or MSLN(V)-Fc. After overnight incubation, the plates were blocked and washed. The anti-mesothelin stalk antibodies of Example 1 (30 ng/ml) and peptide 1 or peptide 2 were added at different concentrations (100 micrograms/ml to 0.00001 micrograms/ml). After washing, anti-mouse IgG-HRP conjugate were added. The OD was then measured with ELISA.
A general note: An ELISA detects its analyte on a solid surface through an enzyme-linked reagent.

For assay [2], the target named is B4. Described as above. The protocol: as §1
Assay [3] addresses B3. Described as above. How it is done: as §1
A further assay has as its target T1, Fc-mesothelin 296-599 (human, UniProt Q13421 296-599).
T1 construct: The order of the parts follows the printed name and is not otherwise stated; not shown: Fc part
Kind of assay: ELISA on Fc-mesothelin 296-599.

The target in assay [4] is T2, mesothelin (296-585) attached to mouse transferrin receptor (TFR) transmembrane domain, on AB1-L9 cells (human; mouse, UniProt Q13421 296-585).
T2 construct: The order of the parts is as printed; also called AB1-L9 cell line
Kind of assay: binding to transfected AB1-L9 cells.

T2 sequence (Q13421 other isoform, or with tags, fused parts or gaps): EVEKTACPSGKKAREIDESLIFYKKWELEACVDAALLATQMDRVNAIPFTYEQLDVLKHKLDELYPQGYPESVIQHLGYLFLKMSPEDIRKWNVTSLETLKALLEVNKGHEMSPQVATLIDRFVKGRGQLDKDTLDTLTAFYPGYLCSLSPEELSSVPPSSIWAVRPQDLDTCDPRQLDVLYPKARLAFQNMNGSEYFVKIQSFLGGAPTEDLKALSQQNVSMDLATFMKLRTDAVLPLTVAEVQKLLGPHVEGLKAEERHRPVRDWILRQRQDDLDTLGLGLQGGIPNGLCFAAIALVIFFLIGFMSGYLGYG
T1 sequence (Q13421 other isoform, or with tags, fused parts or gaps): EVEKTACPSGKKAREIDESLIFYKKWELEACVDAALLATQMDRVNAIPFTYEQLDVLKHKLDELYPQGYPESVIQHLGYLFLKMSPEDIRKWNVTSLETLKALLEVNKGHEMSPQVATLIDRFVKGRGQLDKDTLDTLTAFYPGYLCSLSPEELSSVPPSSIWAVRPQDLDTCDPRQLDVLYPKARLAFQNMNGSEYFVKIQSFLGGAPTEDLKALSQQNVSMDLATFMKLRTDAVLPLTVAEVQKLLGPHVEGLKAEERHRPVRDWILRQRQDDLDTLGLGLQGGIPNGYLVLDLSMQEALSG

For the molecule B1, the binding result in assay [1], in assay [2] and in assay [3] was “binds” throughout.

Consider B2, for which the binding result was “binds” with Fc-mesothelin 296-599 and “no binding” in assay [4].

As to B3, the binding result in the assay with Fc-mesothelin 296-599 is “binds”; in assay [4], “no binding”.

In the case of B4, the figures for the binding result (with Fc-mesothelin 296-599; in assay [4]) were “binds” and “no binding”, respectively.

On to B5, for which the binding result in assay [1], in assay [2] and in assay [3] was “no binding” throughout.
